# Measurements: patent US20230002757A1 (ZHEJIANG NANOMAB TECHNOLOGY CENTER, published 2023)
# B1: 504#SS28 (Fc fusion, not shown: a dimerising Fc or GST; small tags and cut ends)
# VHH: QVQLVESGGGSVQPGGSLRLSCAVSGFTLDYYDIGWFRQAPGKERDWISCISSSDGSQYYADSVKDRFFISRDNAKNTVYLQMNSLEPGDTAVYYCAADFDTYRFCSGFGPDAYSSWGQGTQVIVSS
# notes: VHH-FC construct from HEK293 cells
# B2: 504#SS15 (Fc fusion, not shown: a dimerising Fc or GST; small tags and cut ends)
# VHH: QVQLVESGGGLVQPGGSLRLSCAASGFTFSNYAMTWYRQAPGKERELVAAISSAGYTTTYAGSVKGRFTISRDNAKNTVYLQMNSLNPEDTAVYYCNAGRLSYGGSYYPNDDYWGQGTQVTVSS
# notes: as for B1
# B3: 504#SS14 (Fc fusion, not shown: a dimerising Fc or GST; small tags and cut ends)
# VHH: QVQLVESGGGLVQPGGSLRLSCVASGFTFSSYWMYWVRQAPGKGLEWVSAIDTTGGSTAYTHSVKGRFTISRDNARNTLYLQMNNLKSEDTAVYYCANSTYFNDDPEYDRWGQGTQVTVSS
# notes: as for B1
# B4: 504#SS12 (Fc fusion, not shown: a dimerising Fc or GST; small tags and cut ends)
# VHH: EVQVVESGGGLVQPGGSLRLSCAVSGRGFSEHAMGWYRQSPGKQREFVAGVTSYGGTNYADSVKGRFTISRDNVGNTVFLQMNSLKPEDTAVYYCNYKRGHYPDGVSTYEYWGQGTQVTVSS
# notes: as for B1
# B5: 504#SS10 (Fc fusion, not shown: a dimerising Fc or GST; small tags and cut ends)
# VHH: EVQLVESGGGLVQPGASLRLSCTASGSIFSIYAMGWYRQAPGKQRELVAYITSGGSTTYADSVKGRFTISRDNAKNTVYLQMNSLKPEDTAVYYCNRGNYYRDYKPEFWGQGTQVTVSS
# notes: as for B1
# B6: 504#SS5 (Fc fusion)
# VHH: QVQLVESGGGSAQAGGSLRLSCTASGRPFSIYDMGWFRQAPGKERESVAVINLSRGNTYYADSVKGRFTISLDSAKNTVYLQMNSLKPEDTAVYSCGVDRRQYGLGIPPLADYWGQGTQVTVSS
# notes: VHH-FC construct from HEK293 cells; not shown: The (G4S)3 linker leading to it is left out with it
# B7: 504#SS22 (Fc fusion, not shown: a dimerising Fc or GST; small tags and cut ends)
# VHH: QVQLVETGGGLVQAGGSLRLSCAASGRTFSSYAMGWFRQAPGKERDFVAGISGSGGNTPYAESVKGRFTISRDNAKNTVALQMNSLKPEDTAVYYCAAKFTSSSFYYRSPREYSSWGQGTQVTVSS
# notes: as for B1
# B8: 504#SS16 (Fc fusion, not shown: a dimerising Fc or GST; small tags and cut ends)
# VHH: EVQVVESGGGLVQAGGSLRLSCAVSGRTFSSYVMGWFRQAPGKERDFVAAISRSGGRTWYADSVKGRFTISFDNAKNTVYLQMNSLKPEDTASYYCNTDYTFAKLTAPDRRNDDWGQGTQVTVSS
# notes: as for B1
# B9: 504#SS8 (Fc fusion)
# VHH: EVQVVESGGGLVQAGGSLRLSCTASGRTFSNYAMGWFRQAPGKEREFVASVTWGGSGTFYADSVKGRFTISRDNIKNTVYLQMNSLKPEDTAVYYCAADNVGDSWYSDDYKYWGQGTQVTVSS
# notes: as for B6
# B10: 504#SS25 (Fc fusion, not shown: a dimerising Fc or GST; small tags and cut ends)
# VHH: QVQLVETGGGLVQAGGSLRLSCAASGDTIFISSMAWYRQAPGKERELVASIDSDDIIYYAATVKGRFTISRDNDKPTMYLQMDTLQPEDTAVYYCRVESQDYYFDYDRDSWGQGTQVTVSS
# notes: as for B1
# B11: 504#SS7 (Fc fusion)
# VHH: QVQLVESGGGLVQAGGSLTLSCAASGRTFNSYAMGWFRQAPGKEREFVAAISQNGGSQGYAEAVKDRFTISRDNTNKVVALQMNSLKPEDTAAYYCAADGDASDRSYAPPRDYKYEYWGQGTQVTVSS
# notes: as for B6
# B12: 504#SS30 (Fc fusion, not shown: a dimerising Fc or GST; small tags and cut ends)
# VHH: EVQLVETGGGLVQAGGSLRLACEVSGRTFSSYAMGWFRQAPGREREFVASIRVSGGITDYADSVKGRFTISRDNAKDTVYLQMINLKPEDTAVYYCNADISRYRFSRGDYWGKGTLVTVSS
# notes: as for B1
# B13: 504#SS2 (Fc fusion)
# VHH: EVQVVESGGGLVKTGDSLRLSCAASGGTISGYEMGWFRQAPGKEREFVAGISRNGRSTGYSDSAKDRFTISRDNAKNTVYLQMNSLKPEDTAVYYCAAGLKADYGDSYVDTSTRNYNYWGQGTQVTVSS
# notes: as for B6
# B14: 504#SS1 (Fc fusion)
# VHH: QVQLVESGGGLVQAGGSLRLSCAASGLTFSDFAMGWFRQAPGKEREFVAAISWSGGQTYNVESAKGRFTISRDNAKNTVYLQMNKLKPDDTAVYYCAASTMVVTTVAADYKYWGQGTQVTVSS
# notes: as for B6
# B15: 504#SS9 (Fc fusion)
# VHH: EVQLQESGGGLVQAGGSLRLSCAASGRSFSGYAMAWFRQAPGKEREFVAAVNWNGGSTYYADSVKGRFTISRDNAKDTVYLQMNSLKPEDTAVYYCNARPTFGAYYSDYKSGVDYWGQGTQVTVSS
# notes: as for B6
# B16: 504#SS23 (Fc fusion, not shown: a dimerising Fc or GST; small tags and cut ends)
# VHH: QVQLVESGGGLVQPGGSLRLSCAASGFTFSSYVMSWVRQAPGKGLEWVSAINSGGSSSSYPESVKDRFTVSRDNAKNTLYLQMNSLKPEDTAVYFCAAKNVPGFYYSDYANHEYDYWGQGTQVTVSS
# notes: as for B1
# B17: 504#SS29 (Fc fusion, not shown: a dimerising Fc or GST; small tags and cut ends)
# VHH: QVQLVESGGGLVQAGGSLRLSCAASGRTFSGYTMGWFRRAPGKERELIANILWNSARRYYADSVKGRFTISRDNAMNTVDLQMNSLKPEDTAVYYCAVLVDSTYRFSNQGTQVTVSS
# notes: as for B1
# Key:
# PD-1 protein [1] = target: T1, PD-1 protein (human, UniProt Q15116 25-167, limits assumed); assay: ELISA, PD-1 coated
# T1 construct: also called human PD-1
# Method: 2 μg/ml of PD-1 protein is coated on 96-well plates overnight for ELISA binding assay. Recombinant VHH-FC proteins are added to the wells and allowed to stand for a period of time, then 1 μg/ml of HRP-conjugated anti-FC antibody is added as detection antibody and the assay reagents are added. The absorbance is read at 450 nm. Binding of nivolumab serves as a positive control and plates coated with BSA are used as the negative control group.
# PD-1 protein [2] = target: T1, PD-1 protein; assay: blocking ELISA, PD-1 coated, competitor biotin PD-L1
# Method: Each well of 96-well microtiter plates is coated with 2 μg/ml of PD-1 protein in PBS and blocked with 1% BSA. […]
# The intensity of the developed color is measured at 450 nm. Wells with no added PD-1 and no added VHH-FC are negative and positive controls, respectively.
# T1 sequence (Q15116 25-167 limits assumed): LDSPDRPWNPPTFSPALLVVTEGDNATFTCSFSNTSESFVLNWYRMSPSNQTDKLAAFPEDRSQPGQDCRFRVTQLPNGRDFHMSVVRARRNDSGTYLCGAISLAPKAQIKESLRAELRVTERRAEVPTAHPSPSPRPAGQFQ
Binder,OD450 at 0.002 µg/mL (PD-1 protein [1]) [OD450],OD450 at 0.02 µg/mL (PD-1 protein [1]) [OD450],OD450 at 0.2 µg/mL (PD-1 protein [1]) [OD450],OD450 at 2 µg/mL (PD-1 protein [1]) [OD450],"OD450 of PD-L1 bound, antibody at 0.15 µg/mL (PD-1 protein [2]) [OD450]","OD450 of PD-L1 bound, antibody at 0.61 µg/mL (PD-1 protein [2]) [OD450]","OD450 of PD-L1 bound, antibody at 2.42 µg/mL (PD-1 protein [2]) [OD450]","OD450 of PD-L1 bound, antibody at 9.75 µg/mL (PD-1 protein [2]) [OD450]"
B1,0.14,0.93,2.77,3.06,3.32,3.28,3.31,3.27
B2,0.04,0.04,0.04,0.05,3.53,3.69,3.57,3.68
B3,0.04,0.03,0.03,0.04,3.22,3.25,3.27,3.36
B4,0.03,0.03,0.04,0.07,3.22,3.2,3.27,3.28
B5,0.03,0.03,0.03,0.04,3.27,3.24,3.28,3.32
B6,1.56,2.79,3.18,3.06,3.18,1.65,0.14,0.08
B7,0.04,0.03,0.03,0.04,3.47,3.34,3.32,3.28
B8,0.03,0.04,0.03,0.05,3.48,3.35,3.22,3.26
B9,0.03,0.03,0.03,0.04,3.27,3.28,3.33,3.27
B10,0.03,0.03,0.03,0.04,3.32,3.3,3.36,3.17
B11,0.03,0.05,0.24,1.07,3.32,3.35,3.31,3.26
B12,0.04,0.03,0.03,0.04,3.33,3.26,3.29,3.28
B13,0.59,2.25,3.12,3.1,3.34,3.23,3.31,3.31
B14,0.03,0.03,0.03,0.04,3.19,3.15,3.26,3.17
B15,0.03,0.03,0.03,0.04,3.42,3.36,3.46,3.32
B16,0.19,1.22,2.91,3,3.47,3.31,3.29,3.28
B17,0.04,0.04,0.06,0.35,3.35,3.36,3.39,3.31
